Consider 7 molecules from US20250353912A1 (NEW YORK UNIVERSITY, published 2025).

The target of test [1] is T1, HLA-A*02:01 in complex with the EGFR peptide … conjugated with osimertinib (human, osimertinib covalently bound to Cys).
T1 construct: also called HLA-A*02:01_EGFR-osimertinib; osimertinib-EGFR/HLA-A*02
Description: phage display selection; MBBA.

Test [2] concerns the target T2, HLA-A*03:01 in complex with the KRAS (wild type) peptide … (human).
T2 construct: also called HLA-A*03:01_WTRAS
Description: MBBA titration of purified IgG (FIG. 11).

The target of test [3] is T3, HLA-A*11:01 in complex with the KRAS (wild type) peptide … (human).
T3 construct: also called HLA-A*11:01_WTRAS
Description: MBBA titration of purified IgG (FIG. 11).

For test [4], the target named is T2, HLA-A*03:01 in complex with the KRAS …. Description: flow cytometry on peptide-loaded Raji cells (FIG. 16). A general note: A flow cytometer gives signals particle by particle.

B1: OEA2-21 (antibody, V domains shown)
VH: EVQLVESGGGLVQPGGSLRLSCAASGFTFSSSYIHWVRQAPGKGLEWVASISPSYGYTSYADSVKGRFTISADTSKNTAYLQMNSLRAEDTAVYYCARDMYEWWHWAIDYWGQGTLVTVSS
VL: DIQMTQSPSSLSASVGDRVTITCRASQSVSSAVAWYQQKPGKAPKLLIYSASSLYSGVPSRFSGSRSGTDFTLTISSLQPEDFATYYCQQSSWGGLVTFGQGTKVEIKR
notes: phage-display clone
Consider B1, for which the binding result in test [1] is “binds”.

B2: OEA2-12 (antibody, V domains shown)
VH: EVQLVESGGGLVQPGGSLRLSCAASGFTIYSSSIHWVRQAPGKGLEWVASISSYYGYTSYADSVKGRFTISADTSKNTAYLQMNSLRAEDTAVYYCARYQYYGSLYYSQQWAMDYWGQGTLVTVSS
VL: DIQMTQSPSSLSASVGDRVTITCRASQSVSSAVAWYQQKPGKAPKLLIYSASSLYSGVPSRFSGSRSGTDFTLTISSLQPEDFATYYCQQYDWNYYLVTFGQGTKVEIKR
notes: phage-display clone
On to B2, for which the binding result in test [1] was “binds”.

B3: AMRA3-18 (antibody, human IgG1, V domains shown)
VH: EVQLVESGGGLVQPGGSLRLSCAASGFTVSYSSIHWVRQAPGKGLEWVASISSSSGYTSYADSVKGRFTISADTSKNTAYLQMNSLRAEDTAVYYCARYAWWAHGLDYWGQGTLVTVSS
VL: DIQMTQSPSSLSASVGDRVTITCRASQSVSSAVAWYQQKPGKAPKLLIYSASSLYSGVPSRFSGSRSGTDFTLTISSLQPEDFATYYCQQGSYTYRLITFGQGTKVEIKR
notes: phage-display clone; purified as human IgG1/kappa; also called AMRA3-18 hIgG1
B3: the binding result in test [2] and in test [3] was “no binding” in each case.

B4: AMRA3-7 (antibody, human IgG1, V domains shown)
VH: EVQLVESGGGLVQPGGSLRLSCAASGFTFSSYSIHWVRQAPGKGLEWVASIYSSYGYTSYADSVKGRFTISADTSKNTAYLQMNSLRAEDTAVYYCARGGWYPAMDYWGQGTLVTVSS
VL: DIQMTQSPSSLSASVGDRVTITCRASQSVSSAVAWYQQKPGKAPKLLIYSASSLYSGVPSRFSGSRSGTDFTLTISSLQPEDFATYYCQQISYVYSLITFGQGTKVEIKR
notes: phage-display clone; purified as human IgG1/kappa; also called AMRA3-7 hIgG1
As to B4, the binding result in test [2] and in test [3] was “no binding” each time.

B5: OEA2-1 (antibody, V domains shown)
VH: EVQLVESGGGLVQPGGSLRLSCAASGFTFSSSSIHWVRQAPGKGLEWVASISSSSGSTSYADSVKGRFTISADTSKNTAYLQMNSLRAEDTAVYYCARYYGYVWGGYWGWWYSKALDYWGQGTLVTVSS
VL: DIQMTQSPSSLSASVGDRVTITCRASQSVSSAVAWYQQKPGKAPKLLIYSASSLYSGVPSRFSGSRSGTDFTLTISSLQPEDFATYYCQQSSSSLITFGQGTKVEIKR
notes: phage-display clone
Regarding B5, the binding result in test [1] is recorded as “binds”.

B6: OEA2-16 (antibody, V domains shown)
VH: EVQLVESGGGLVQPGGSLRLSCAASGFTFSSSSIHWVRQAPGKGLEWVASISSSSGSTSYADSVKGRFTISADTSKNTAYLQMNSLRAEDTAVYYCARSPSSPYFMSWGWYWQYGIDYWGQGTLVTVSS
VL: DIQMTQSPSSLSASVGDRVTITCRASQSVSSAVAWYQQKPGKAPKLLIYSASSLYSGVPSRFSGSRSGTDFTLTISSLQPEDFATYYCQQSSSSLITFGQGTKVEIKR
notes: phage-display clone
As for B6, in test [1], the binding result is on record as “binds”.

B7: P2AMR-1 in the human IgG1 format (antibody, V domains shown)
VH: QVQLVQSEPEVKKPGSSVKLSCKASGGTFSTDAITWVRQAPGQGLEYMGGIIPLLDSVDYAQRFQGRVTVSADKSTGTAYMEVRSLGSEDTAKYYCAKWSSVDTGLDYWGQGTLVTVSS
VL: QSVLIQPRSVSGSPGQSVTISCTGTSSDVGGYNYVSWYQQHPGKAPKLMIYDVSKRPSGVPDRFSGSKSGNTASLTVSGLQAEDEADYYCGSYADTDTIVFGTGTKLTVL
notes: human IgG1; also called P2AMR-1 IgG
For B7, the binding result in test [4] is listed as “no binding”.
